Patent EP4729537A1, “B-LACTAMASE-INHIBITING ANTIBODY AND USE THEREOF IN THE TREATMENT AND/OR PREVENTION OF INFECTIONS CAUSED BY B-LACTAMASE-PRODUCING BACTERIA” (priority 2023, dated 2024)
“And” between values parts separate entries of the source, which are not always exact repeats. Equal values may be shown once.

Columns and labels:
[1] = system: O=C(Cc1cccs1)N[C@@H]1C(=O)N2C(C(=O)O)=C(/C=C/c3ccc([N+](=O)[O-])cc3[N+](=O)[O-])CS[C@H]12; test: nitrocefin hydrolysis assay with E. coli BL21(DE3) cells expressing the β-lactamase in the periplasm; type: cell-based, Klebsiella pneumoniae; conditions: other: E. coli cells, control without antibody (controls of the B2 and B5 runs)
Procedure: (§1) An in vivo assay was conducted to test the inhibitory capacity of four β-lactamases from three resistant microorganisms: BlaMab from Mycobacterium abscessus, KPC-2 (UNIPROT Q9F663) and OXA-48 (UNIPROT Q6XEC0) from Klebsiella pneumoniae, and VIM-2 (UNIPROT B8QIQ9) from Pseudomonas aeruginosa. The assay utilized BL21(DE3) strain cells of Escherichia coli transformed with the expression vector pET26b(+) along with the gene sequence of each β-lactamase. Cells successfully transformed with the vector and insert were selected using a Kanamycin resistance gene (KanR) present in the vector. […] Additionally, the pET26b(+) vector has an IPTG-inducible promoter to activate the translation of the corresponding β-lactamase. The plasmid also includes a pelB export signal directing the β-lactamase to the periplasmic space of the bacteria for the inhibition assay with Ndis (nanobodies, single-domain antibodies).
(§2) This compound changes color from yellow to red when hydrolyzed by β-lactamase, which can be quantified by measuring absorbance at 490nm.

[2] = system: O=C(Cc1cccs1)N[C@@H]1C(=O)N2C(C(=O)O)=C(/C=C/c3ccc([N+](=O)[O-])cc3[N+](=O)[O-])CS[C@H]12; test: as above; type: cell-based, Pseudomonas aeruginosa; conditions: other: E. coli cells, control without antibody (controls of the B2 and B5 runs)
Procedure: as §1, §2

Substance | Km [1] | Km [2]
OXA-48 (UNIPROT Q6XEC0) from Klebsiella pneumoniae (Klebsiella pneumoniae) | 4.48 µM | –
VIM-2 (UNIPROT B8QIQ9) from Pseudomonas aeruginosa (Pseudomonas aeruginosa) | – | 4.35 µM and 6.75 µM
